Assay results taken from patent US12441811B2, “Compositions and methods for treating serpin B13 disorders” (REGENTS OF THE UNIVERSITY OF MINNESOTA, priority 2019, dated 2025).
Entries after “also recorded” stand apart in the source; their conditions may differ.

Columns and labels:
Notch1 receptor = assay: Examination of Notch1 receptor in embryonic pancreas (Western blot, flow cytometry, qPCR); format: cell-based, mouse; conditions: for levels of active Notch intracellular domain (aNICD): embryonic pancreas, antibody vs control Ab
Procedure: Staining for flow cytometry. BD LSRFortessa X-20, LSR-II and FACSCanto-II were used for FACS analysis. Positive populations of cells were gated and counted using FlowJo ver.10 software. For the islet cells isolated from adult mice, intracellular staining to detect glucagon and insulin was used to count single-positive as well as double-negative cells. In the cells isolated from embryonic pancreas explants, intracellular staining was performed to detect Ngn3, CK19, and active Notch, and extracellular staining was used to detect the extracellular Notch domain, EpCAM, CD31 and CD45.
Western blotting. Pancreatic tissues were processed from E16.5 embryos as single samples and directly used for lysis. Embryonic pancreas explants from E12.5 embryos were cultured in vitro with anti-serpinB13 mAb (or control Ab) for 24 or 48 hours, then, three explant cultures were combined and lysed. The samples were washed two times in ice-cold PBS and lysed with gentle pipetting for 10 minutes with additional tap-vortexing for 15 minutes in RIPA buffer containing Halt protease inhibitors (cat. no. 1862209, Thermo Fisher Scientific). Equal amounts of protein in each sample were run under reducing conditions on Bis-Tris BOLT gradient gel (4-12%) or NUPAGE Tris-acetate gradient gels (4-12%) (both from Thermo Fisher Scientific), and transferred onto […] nitrocellulose or activated PVDF membranes. The membranes were blocked with 5% skim milk and stained with primary and secondary antibodies, as indicated. The Western blots were developed with SuperSignal West Pico Chemiluminescent Substrate or West Femto Maximum Sensitivity Substrate (cat. nos. […] and […], respectively; both from Thermo Scientific), and scanned using the ChemiDoc™ MP Imaging System (Bio-Rad, Hercules, […], USA).
Quantitative real-time PCR. Total RNA from embryonic pancreases was extracted using the RNeasy UCP Micro kit (cat. no. 73934; Qiagen, Hilden, Germany) to measure expression of the Notch1 gene. One hundred to […] of the total RNA per group was reverse transcribed to cDNA using the iScript cDNA Synthesis Kit (cat. no. 1708891; Bio-Rad). Quantitative PCR assays were performed on an Applied Biosystems QuantStudio 3 real-time PCR system using cDNA and the Kapa Sybr Fast reagent (cat. no. 0795959100; Roche). Actin-R was used as a reference gene. The primer sequence for Notch1 was as follows: forward—5′[…]3′ and reverse—5′ […]3′.

[1] = test system: streptozotocin-induced diabetes; assay: STZ-induced diabetes in adult offspring with gestational exposure to anti-serpinB13 mAb; format: in vivo, mouse; conditions: for preserved residual β-cell mass: 4 weeks after STZ 150 mg/kg in adulthood; for preserved residual β-cell mass / diabetes / severity of the disease: prenatal exposure; for diabetes / severity of the disease: STZ injected in adulthood, vs control antibody
From the text: Calculation of the islet mass. In embryos, the β-cell mass was expressed as the percentage of the area of all pancreatic sections combined, that positively stained with anti-insulin antibody. To calculate β-cell mass in adult mice, the percentage insulin-positive area was multiplied by the pancreas weight expressed in milligrams.
Diabetes induction and monitoring. C57BL/6 male mice, which are susceptible to STZ-induced diabetes, were subjected to a 6-hour period of bedding removal and fasting with unlimited access to drinking water. At the end of fasting, STZ was dissolved in a freshly prepared buffer (50 mM Sodium Citrate, pH 4.5) and immediately injected i.p. at 150 mg/kg. The glucose levels in tail blood were measured at random every 7 days for 4 weeks. Alternatively, to perform the glucose tolerance test, STZ-treated C57BL/6J male mice were first fasted for 6 hours with unlimited access to drinking water, and then injected i.p. with a 10% D-(+)-glucose solution (10 μL/g body weight). A glucometer (One-Touch Ultra) was used to monitor glucose levels using tail blood collected before glucose injection, and after injection at 30-min intervals for 2 hours. For glucometer glucose readings “above 600 mg/dL”, the data were extrapolated to the value of 700 mg/dL for algebraic statistical purposes only.

Ngn3+ cells = assay: Genetic lineage tracing of Ngn3+ cells; format: in vivo, mouse
Procedure: FIGS. 18A-18C. Genetic tracing of Ngn3^+ cells in the pancreas of healthy and diabetic adult mice treated with anti-serpinB13 mAb. (A) The protocol of mice treatment with streptozotocin (STZ), tamoxifen (TAM), and anti-serpinB13 mAb (or control Ab). Eight-week old Ngn3Cre^ERTR26^YFP mice were induced into diabetes with STZ (150 mg/kg) and genetically labelled with YFP to mark Ngn3^+ cells, using TAM one day after injection of STZ, and an additional three times every other day thereafter. The antibodies were injected every day for 7 days at 100 μg/injection during the first week after STZ treatment. (B) Quantitative analysis by IF microscopy of YFP^+ cells expressing insulin at two weeks following induction of diabetes with STZ. […] (C) Representative microscopic IF images of YFP^+insulin^+ cells depicted in (B). Data are presented as the mean±SEM. Ordinary one-way ANOVA with Sidak test. Scale bars, 10 μm. NS, not significant. αB13, anti-serpinB13 mouse mAb.
Linage tracing. In the developmental studies, the Rosa26^EYFP females were initially set up for overnight breeding with NgnCre^ERT males and the following morning examined for the presence of a vaginal plug to indicate embryonic day E0.5. On embryonic day E10.5, E11.5, E12.5 and 13.5, anti-serpinB13 mAb (or control Ab) was injected i.p. at a dose of 50 μg per animal per day (total dose of 200 μg). […]

catL = conditions: previously shown by the applicant; cited from earlier work
pancreatic islets = conditions: cited from earlier work

B1: B29: mouse monoclonal antibody to serpin B13, clone B29; heavy chain SEQ ID NO:14, kappa light chain SEQ ID NO:16 (antibody, V domains shown)
VH: QIQLVQSGPELKKPGETVKISCKASGYTFTTYGMSWVKQAPGKGLKWMGWINTYSGMPTYADDFKGRFAFSLETSATTAYLQINNLKNEDTATYFCARPLLGLDYWGQGTTLTVSS
VL: DIVMTQTPLSLSVTIGQPASISCKSSQSLLHSDGKTFLNWFLQRPGQSPKLLIYLVSKLESGIPDRFSGSGSGTDFTLKISRVEVEDLGVYYCLQHTHFPLTFGAGTKLEIK
~60 kD degradation fragments of Notch1 (Notch1 receptor; E12.5 explants treated 48 hours): induction | levels of active Notch intracellular domain (aNICD) (Notch1 receptor): diminished | levels of active Notch intracellular domain (aNICD) (Notch1 receptor; listed as mAb): markedly reduced levels | expression of the ectodomain of the Notch1 receptor (Notch1 receptor; embryonic pancreatic tissue, in vivo and in vitro exposure, 24 and 48 hours): time-dependent reduced expression | transcriptional level of Notch1 (Notch1 receptor; quantitative PCR): relatively intact | loss of body weight ([1]; 1-4 weeks after STZ): prevented | serum creatinine as a measure of renal function ([1]; 4 weeks after STZ): improved | preserved residual β-cell mass ([1]; listed as anti-serpinB13 mAb): over two-fold greater | preserved residual β-cell mass ([1]; listed as serpinB13 mAb): higher | diabetes / severity of the disease [1]: helped to prevent severe diabetes | diabetes / severity of the disease ([1]; listed as anti-serpinB13 antibody): improved outcomes | diabetes / severity of the disease ([1]; listed as anti-serpinB13 mAb): either completely protected against diabetes (FIG. 24A-24B), or ameliorated the severity of the disease | diabetes / severity of the disease ([1]; listed as mAb): improved resistance | diabetes / severity of the disease ([1]; listed as serpinB13 mAb): reduced severity of disease | blood glucose control ([1]; ipGTT at 2 weeks, random glucose 1-4 weeks after STZ): improved | transition from Ngn3 to insulin expression (YFP+insulin+ cells) (Ngn3+ cells; adult mice with STZ-induced pancreatic damage, 100 μg/injection for 7 days, listed as anti-serpinB13 mAb): also observed; also recorded: increase | conversion of Ngn3+ cells to insulin-positive status (Ngn3+ cells; injection during gestation, YFP+insulin+ cells in embryos): enhanced conversion | inhibitory properties of serpinB13 (catL): blocked | recovery from diabetes (pancreatic islets; coadministration with a suboptimal dose of anti-CD3 mAb): accelerated | Reg gene expression (pancreatic islets; injection): enhanced | beta cell mass (pancreatic islets; injection): increase | beta cell proliferation (pancreatic islets; injection): enhanced | generation of pancreatic islets (pancreatic islets; injection): ~80 pancreatic islets per animal | islet inflammation (pancreatic islets; mice, mAb alone): decreased
